Measurements reported in patent WO2020241660A1 (dated 2020).

Molecular target: T1, peptide consisting of amino acid residues 44-72 of the human eIF5A protein (human, UniProt P63241 44-72)
T1 construct: range 44-72; also called human eIF5A (44-72) peptide
Assay: ELISA, screening of hybridoma antibodies on the peptide

T1 sequence (P63241 44-72 limits assumed): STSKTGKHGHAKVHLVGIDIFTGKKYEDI

binding result: binds
B1: anti-ORAIP antibody (clone YSP5-45-36) (antibody, V domains shown)
VH: EVKLVESGGGLVQPGGSLRLSCATSGFTFTDYYMSWARQPPGKALEWLGFIRNKANGYTTEYSASVKGRFTISRDNSLGILYLQMNTLRPEDSATYYCARNYYGTSFSWFAYWGQGTLVTVSA
VL: MTQTPLSLSVSLGDQASISCRSSQSIVHFNGNTYLEWYLQKPGQSPKLLIYKVSSRFSGVPDRFSGSGSGTDFTLKISRVEAEDLGVYYCFQGSHVPPTFGGGTKLEIK
notes: Mouse monoclonal antibody from a hybridoma (mouse IgG H and L chain primers were used for cloning); also called neutralizing antibody against secretory eIF5A
